Results from US20230357398A1 (MorphoSys, published 2023).

How the values were obtained:
[1] = target: T1, cynomolgus CD3 epsilon, cell surface expressed (cynomolgus monkey PBMCs) (cynomolgus monkey, UniProt Q95LI5 22-198); test: flow cytometry on cynomolgus monkey PBMCs, IgG titration
T1 construct: On the cells CD3 epsilon is part of the native CD3/TCR complex; also called cyno CD3

[2] = target: T2, cyCD3e(1-109)_F-chLys_avi (cynomolgus monkey); test: BLI (Octet HTX); FabCys captured on Fab-specific sensor, CD3e antigen as analyte; 1:1 model; dissociation approaching assay limit
T2 construct: also called cynomolgus monkey CD3 epsilon antigen
T2 sequence (chain, as listed by the source limits assumed): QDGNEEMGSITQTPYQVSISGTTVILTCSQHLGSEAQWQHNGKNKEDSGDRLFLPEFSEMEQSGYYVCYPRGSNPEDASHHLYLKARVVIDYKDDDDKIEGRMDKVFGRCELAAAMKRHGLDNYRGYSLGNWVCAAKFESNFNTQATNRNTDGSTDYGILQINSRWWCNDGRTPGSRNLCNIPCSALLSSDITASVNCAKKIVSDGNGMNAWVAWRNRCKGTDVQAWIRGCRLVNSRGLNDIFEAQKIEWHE
Experimental: (§1) Affinity determination by determining kinetic rate constants was performed on an Octet HTX (FortéBIO, Sartorius AG) instrument as described below.
(§2) The different Fab-Cys samples diluted in assay buffer (D-PBS, 0.05% (v/v) PS 20, 0.1% (w/v) BSA) were captured onto Fab-specific BLI sensors with a loading level of approx. 0.5 nm. […] A blank sample with assay buffer was included for referencing, i.e. correcting for dissociation of captured antibody. The association phase was recorded for 300 s, followed by a dissociation phase of 900 s. After each cycle, the biosensors were regenerated two times with 10 mM Glycine HCl pH 1.7 to remove bound ligand/antibody complex, while maintaining the integrity of the capture surface. Between regeneration steps, biosensors were washed with assay buffer for 20 s.
(§3) The sensorgrams were fitted using Octet Data Analysis Software 10.0 (FortéBio, Sartorius AG) to determine kₒₙ and koff rate constants (using a 1:1 binding model), which were used to calculate KD.

[3] = target: T2, cyCD3e(1-109)_F-chLys_avi; test: BLI (Octet HTX); FabCys captured on Fab-specific sensor, CD3e antigen as analyte; 1:1 model; less precise, dissociation at assay limit
Experimental: as §1, §2, §3

[4] = target: T3, Mature human CD3e(1-118)_FLAG-chLys_Avi (human); test: BLI (Octet HTX); FabCys captured on Fab-specific sensor, CD3e antigen as analyte; 1:1 model
T3 construct: also called human CD3 epsilon antigen
T3 sequence (chain, as listed by the source limits assumed): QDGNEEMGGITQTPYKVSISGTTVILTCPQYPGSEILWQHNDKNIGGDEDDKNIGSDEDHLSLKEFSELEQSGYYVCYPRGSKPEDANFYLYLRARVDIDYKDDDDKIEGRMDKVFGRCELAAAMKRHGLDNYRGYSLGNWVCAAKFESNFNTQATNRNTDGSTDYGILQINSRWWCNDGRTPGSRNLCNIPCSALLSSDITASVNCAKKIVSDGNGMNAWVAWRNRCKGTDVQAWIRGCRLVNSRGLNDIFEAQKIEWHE
Experimental: as §1, §2, §3

[5] = target: T2, cyCD3e(1-109)_F-chLys_avi; test: as above
Experimental: as §1, §2, §3

[6] = target: T4, human CD3 epsilon, cell surface expressed (human PBMCs / human T cells) (human, UniProt P07766 23-207); test: flow cytometry (FACS) on human PBMCs
T4 construct: On the cells CD3 epsilon is part of the native CD3/TCR complex; also called CD3 on human PBMCs
T4 sequence (P07766 23-207 limits assumed): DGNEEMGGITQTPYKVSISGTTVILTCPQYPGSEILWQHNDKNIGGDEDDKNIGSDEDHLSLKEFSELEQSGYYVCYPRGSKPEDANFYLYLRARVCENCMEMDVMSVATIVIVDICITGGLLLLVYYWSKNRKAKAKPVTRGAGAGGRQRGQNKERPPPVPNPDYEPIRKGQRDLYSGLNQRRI
Experimental: (§4) Antibody staining was measured using a multiformat Flow Cytometer (NovoCyte, Agilent Technologies) and analyzed using NovoExpress software (Version 1.5.0). Lymphocytes were identified by morphological gating of forward and side scatters. EC₅₀ values were calculated using 4-parameter non-linear regression analysis in Prism software (GraphPad Software Inc., version 8.4.3).

[7] = target: T1, cynomolgus CD3 epsilon, cell surface …; test: flow cytometry (FACS) on cynomolgus PBMCs
Experimental: as §4

[8] = target: T2, cyCD3e(1-109)_F-chLys_avi; test: BLI (Octet HTX); FabCys captured on Fab-specific sensor, CD3e antigen as analyte; 1:1 model; rate set to assay limit
Experimental: as §1, §2, §3

T1 sequence (Q95LI5 22-198 limits assumed): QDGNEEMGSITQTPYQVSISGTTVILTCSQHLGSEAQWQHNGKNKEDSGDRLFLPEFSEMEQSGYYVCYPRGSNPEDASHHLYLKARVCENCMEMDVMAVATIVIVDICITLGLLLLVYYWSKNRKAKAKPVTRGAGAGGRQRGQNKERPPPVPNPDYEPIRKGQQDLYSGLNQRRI

Row | Binder | binding result [1] | koff [2] [s⁻¹] | Kd [3] [nM] | Kd [4] [nM] | koff [4] [s⁻¹] | kon [4] [M⁻¹ s⁻¹] | kon [5] [M⁻¹ s⁻¹] | EC50 [6] [nM] | EC50 [7] [nM] | koff [8] [s⁻¹] | Kd [5] [nM] | koff [5] [s⁻¹]
1 | MAB-1 (parental) (antibody, V domains shown, also called MAB-1 IgG; parental antibody MAB-1) VH: EVQLVESGGGLVQPGGSLRLSCAASGFTFSSYWMSWVRQAPGKGLEWVANIKQDGSEKYYVDSVKGRFTISRDNAKNSLYLQMNSLRAEDTAVYYCARGYSAEFAHRSGLDVWGQGTLVTVSS VL: QSVLTQPPSASGTPGQRVTISCSGSSSNIGSNYVYWYQQLPGTAPKLLIYRNNQRPSGVPDRFSGSKSGTSASLAISGLRSEDEADYYCAAWDHHRSGAVFGGGTKLTVLG | binds | – | – | – | – | – | – | – | – | – | – | –
2 | MAB-8_h_FabCys (Fab, V domains shown, Tagless disulfide-bridged human FabCys produced in HEK293 cells; also called MAB-8 Fab-Cys) VH: EVQLVESGGGLVQPGGSLRLSCAASGFTFRSHYMTWVRQAPGKGLEWVANIDYEGTRTYYAESVKGRFTISRDNAKNSLYLQMNSLRAEDTAVYYCARGYSAEFAHRSGLDVWGQGTLVTVSS VL: QSVLTQPPSASGTPGQRVTISCSGSSSNIGSNYVYWYQQLPGTAPKLLIYRNNQRPSGVPDRFSGSKSGTSASLAISGLRSEDEADYYCAAWDRHSHGAVFGGGTKLTVLG | – | ~5.07e-05 | ~0.1 | 0.3 | 0.000258 | 802000 | 464000 | 5.5 | 3.2 | – | – | –
3 | MAB-9_h_FabCys (Fab, V domains shown, Tagless disulfide-bridged human FabCys produced in HEK293 cells; also called MAB-9 Fab-Cys) VH: EVQLVESGGGLVQPGGSLRLSCAASGFTFRSHYMTWVRQAPGKGLEWVANIDYEGTRTYYAESVKGRFTISRDNAKNSLYLQMNSLRAEDTAVYYCARGYSAEFAHRSGLDVWGQGTLVTVSS VL: QSVLTQPPSASGTPGQRVTISCSGSSSNIGINYVYWYQQLPGTAPKLLIYRNNIRPSGVPDRFSGSKSGTSASLAISGLRSEDEADYYCAAWDRHSHGAVFGGGTKLTVLG | – | – | ≤ 0.1 | 0.2 | 0.000122 | 724000 | 446000 | 7.7 | 4.7 | ≤ 5e-05 | – | –
4 | MAB-16_h_FabCys (Fab, V domains shown, Tagless disulfide-bridged human FabCys produced in HEK293 cells; also called MAB-16 Fab-Cys) VH: EVQLVESGGGLVQPGGSLRLSCAASGFTFRSHYMTWVRQAPGKGLEWVANIDYEGTRTYYAESVKGRFTISRDNAKNSLYLQMNSLRAEDTAVYYCARGYSAEFAHRSGLDVWGQGTLVTVSS VL: QSVLTQPPSASGTPGQRVTISCSGSSSNIGSNYVYWYQQLPGTAPKLLIYRNNQRPSGVPDRFSGSKSGTSASLAISGLRSEDEADYYCAGWDRRLHGAVFGGGTKLTVLG | – | – | – | 0.3 | 0.000272 | 852000 | 478000 | 3.3 | 2 | – | 0.2 | 7.92e-05
5 | MAB-12_h_FabCys (Fab, V domains shown, Tagless disulfide-bridged human FabCys produced in HEK293 cells; also called MAB-12 Fab-Cys) VH: EVQLVESGGGLVQPGGSLRLSCAASGFTFRSHYMTWVRQAPGKGLEWVANIDYEGTRTYYAESVKGRFTISRDNAKNSLYLQMNSLRAEDTAVYYCARGYSAEFAHRSGLDVWGQGTLVTVSS VL: QSVLTQPPSASGTPGQRVTISCSGSSSNIGANYVYWYQQLPGTAPKLLIYRNNQRPSGVPDRFSGSKSGTSASLAISGLRSEDEADYYCAAWDRHSHGAVFGGGTKLTVLG | – | – | ≤ 0.1 | 0.3 | 0.000188 | 650000 | 445000 | 5.7 | 4.1 | ≤ 5e-05 | – | –
6 | MAB-13_h_FabCys (Fab, V domains shown, Tagless disulfide-bridged human FabCys produced in HEK293 cells; also called MAB-13 Fab-Cys) VH: EVQLVESGGGLVQPGGSLRLSCAASGFTFRSHYMTWVRQAPGKGLEWVANIDYEGTRTYYAESVKGRFTISRDNAKNSLYLQMNSLRAEDTAVYYCARGYSAEFAHRSGLDVWGQGTLVTVSS VL: QSVLTQPPSASGTPGQRVTISCSGSSSNIGINYVYWYQQLPGTAPKLLIYRNNQRPSGVPDRFSGSKSGTSASLAISGLRSEDEADYYCAAWDRHSHGAVFGGGTKLTVLG | – | – | ≤ 0.1 | 0.2 | 0.000134 | 705000 | 413000 | 8.3 | 5.2 | ≤ 5e-05 | – | –
7 | MAB-7_h_FabCys (Fab, V domains shown, Tagless disulfide-bridged human FabCys produced in HEK293 cells; also called MAB-7 Fab-Cys) VH: EVQLVESGGGLVQPGGSLRLSCAASGFTFKSYYMSWVRQAPGKGLEWVANIDYQSQHAYYAESVKGRFTISRDNAKNSLYLQMNSLRAEDTAVYYCARGYSAEFAHRSGLDVWGQGTLVTVSS VL: QSVLTQPPSASGTPGQRVTISCSGSSSNIGSNYVYWYQQLPGTAPKLLIYRNNQRPSGVPDRFSGSKSGTSASLAISGLRSEDEADYYCAAWDRHSHGAVFGGGTKLTVLG | – | – | – | 1.3 | 0.000627 | 499000 | 370000 | 6.1 | 3.7 | – | 0.4 | 0.000158
